Positions count from the first letter of the chain named. In names and notes the source's numbering stands.

Assay [1] deals with T1, CEACAM6 on transfected HeLa cells (human, UniProt P40199 35-320).
T1 construct: whole, on cells; also called HeLa-CEACAM6; HeLa C6
T1 sequence (looked up): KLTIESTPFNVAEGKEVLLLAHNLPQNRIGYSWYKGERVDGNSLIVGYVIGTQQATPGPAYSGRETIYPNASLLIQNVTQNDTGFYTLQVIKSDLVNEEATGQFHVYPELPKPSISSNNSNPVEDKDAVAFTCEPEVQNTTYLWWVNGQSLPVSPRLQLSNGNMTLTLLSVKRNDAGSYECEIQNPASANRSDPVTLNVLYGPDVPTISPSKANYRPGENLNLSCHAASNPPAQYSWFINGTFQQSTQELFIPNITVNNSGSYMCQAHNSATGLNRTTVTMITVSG
In words: flow cytometry, HeLa-CEACAM6 transfectants, % positive cells.

Assay [2] concerns the target T2, His-tagged CEACAM1 (human, UniProt P13688 35-428).
T2 construct: 45 kDa SPR analyte; also called CEACAM1-HIS; CEACAM1 analyte
T2 sequence: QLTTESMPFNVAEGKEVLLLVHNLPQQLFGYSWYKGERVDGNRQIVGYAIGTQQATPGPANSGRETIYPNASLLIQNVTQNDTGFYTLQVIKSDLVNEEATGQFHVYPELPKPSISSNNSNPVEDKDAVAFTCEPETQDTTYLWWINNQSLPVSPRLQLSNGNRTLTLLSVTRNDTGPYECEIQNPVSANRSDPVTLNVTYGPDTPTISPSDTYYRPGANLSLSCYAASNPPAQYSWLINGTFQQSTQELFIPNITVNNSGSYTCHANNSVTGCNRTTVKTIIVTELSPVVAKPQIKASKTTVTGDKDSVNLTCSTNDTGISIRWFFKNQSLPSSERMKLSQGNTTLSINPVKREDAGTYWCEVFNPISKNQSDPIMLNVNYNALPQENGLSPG
In words: SPR multi-cycle, IgG captured.

For assay [3], the target named is T2, His-tagged CEACAM1. In words: SPR single-cycle, supernatant IgG captured. An outline of the steps: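 Humanized, affinity-matured IgGs from crude supernatant (0.5 μg/ml in HBS-P+) captured on Protein A to ~100 RU. Single-cycle kinetics: CEACAM1 at three concentrations, 70–280 nM two-fold, 80 μl/min, 80 s association each, 150 s dissociation. Reference-channel and blank-run subtraction applied.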

B1: chimeric antibody VH0/Vκ0 (antibody, IgG4, V domains shown)
VH: EVQLVESGGDLVKPGGSLKLACAASGFIFSSHGMSWVRQTPDKRLEWVATISSGGTYTYYPDSVKGRFTISRDNDKNTLYLQMNSLKSEDTAMYYCARHDFDYDAAWFAYWGQGTLVTVSS
VL: QIVLTQSPALMSASPGVKVTMTCSANSSVSYMYWYRQKPRSSPKPWIYLTSNLASGVPARFSGSGSGTSYSLTISSMEAEDAATYYCQQWSSNPPTFGSGTKLEIK
notes: IgG4 (S241P), kappa; also called VH0/Vκ0 (control); Chimeric VH0/Vκ0
Take B1: the binding result in assay [1] is on record as “no binding”. Further, in the assay with His-tagged CEACAM1 [2], the “relative KD to VH0/Vκ0” value stood at 1.

B2: VH1/Vκ8 S29A (antibody, IgG4, V domains shown)
VH: B1 VH with V5L, D10G, K13Q, K19R, A21S, T40A, D42G, R44G, D75S, S88A
VL: EIVLTQSPATLSLSPGERATLSCRANSAVSYMYWYQQKPGQAPRPWIYLTSNRATGVPARFSGSGSGTDYTLTISSLEPEDFAVYYCQQWSSNPPTFGQGTKLEIK
notes: IgG4 (S241P), kappa; also called Parent; Parent (VH1/Vκ8 S29A)
On to B2, for which, in the assay with His-tagged CEACAM1 [3], binding was characterised by a dissociation constant (Kd) of 560 nM, the dissociation rate constant (koff) is 0.053 s⁻¹, the kon is 94000 M⁻¹ s⁻¹ and the “relative KD to parent” value is 1.

The values above are taken from patent US20250074980A1 (BRIGHAM AND WOMEN S HOSPITAL, published 2025).
